Here are results for 167 variants from the RNAGym collection of RNA variant scans (doi:10.1093/nar/gkz1192).

B1: CPEB3 Ribozyme (parent)
chain: UAACAGGGGGCCACAGCAGAAGCGUUCACGUCGCAGCCCCUGUCAGAUUCUGGUGAAUCUGCGAAUUCUGCUGUAUAUCUC

Variants of B1 are the subject of this series. Description: self-cleavage, relative activity (ratio to wild type); higher = more cleavage; in vitro, sequencing. A digest of the protocol:
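Barcoded CPEB3 ribozyme mutants, produced by rounds of error-prone PCR, self-cleaved while being transcribed with T7 RNA polymerase for 5 hours at 37°C and during a subsequent 15 min DNase I step before EDTA was added. Sequencing of template-switched cDNA on Illumina gave cleaved and total reads, and DNA sequencing assigned barcodes to variants. Each variant's relative activity is its cleaved/total read fraction divided by the unmutated ribozyme's fraction, averaged across three batches. A variant needed a minimum of 5 reads.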
As to C17U U51C, the self-cleavage came to 0.56.

On to G16A U31G, for which the self-cleavage was found to be 0.47. In the case of A15U U67G it was 0.11; in that of G22C G42U, 0.11. In the case of G63U C81U it was 0.99; in that of A64C U69G, 0.47; in that of A2G U25A, 0.36.

In the case of G16U G33A, the self-cleavage came to 0.32. U58C C81U: the self-cleavage was 0.68. Consider G6A U31A, for which the self-cleavage was 0.21. Turning to U41G A56U, the self-cleavage came out at 0.25.

With A45G C50G, the self-cleavage is 0.28. In the case of A3G C40G, the self-cleavage amounted to 0.5. In the case of U49G C81U it was 0.77; in that of U43C U74A, 0.85. For A47G U74G, the self-cleavage was found to be 1.24. The result for A45G U78A reads 0.91. For the variant G10U A64U, the self-cleavage amounted to 0.35. In the case of A18C C68A it was 0.18. In the case of G63A A64G, the self-cleavage was 0.6. In the case of C14A A75U it was 1.23; in that of A57U U67C, 0.22. In the case of C37A A45U, the self-cleavage stood at 0.23. In the case of G6A C17U it was 0.22; in that of U41A G63C, 0.26. Take A13C A18G: the self-cleavage is 0.67. Turning to C11G G70A, the self-cleavage amounted to 0.26. The result for A47G A64U reads 0.34; that for A15G C37U, 0.81; that for A18G G22C, 0.24.

Consider U48C G63C, for which the self-cleavage worked out at 0.47. In the case of A20G U48C it was 0.4. In the case of G30U C38U it was 0.26; in that of A21G G24A, 0.24; in that of U58C U72G, 0.55. With U25A A57G, the self-cleavage was 0.3. For the variant U25C A75U, the self-cleavage came out at 0.34. In the case of G9A U60C it was 0.14; in that of G22A U78C, 0.19; in that of G24A C62U, 0.18.

Turning to G6U C79A, the self-cleavage was determined as 0.46. Regarding C14U A77G, the self-cleavage came out at 1.34. Turning to G7U A45C, the self-cleavage was 0.2. In the case of G7A G30A it was 0.35; in that of A5C A21U, 0.36; in that of A15U C44A, 0.32.

As for U58C A75G, the self-cleavage was 0.46.

Take U25C U54C: the self-cleavage worked out at 0.27. In the case of A56C A75G it was 0.29; in that of G24A U58A, 0.34; in that of A18U C59U, 0.23. As for G16C U78C, the self-cleavage worked out at 0.22.

Turning to A5C A35U, the self-cleavage was found to be 0.54.

In the case of A13G C62U, the self-cleavage stood at 0.23. In the case of G22C A56G it was 0.21; in that of A20C U60A, 0.43; in that of G24U U67C, 0.1.

G10U U49C: the self-cleavage is 0.24.

Consider A5U U67C, for which the self-cleavage was determined as 0.29. The result for U51A U54C reads 1.07. On to A5G U78G, for which the self-cleavage stood at 0.91.

As to A18U C79U, the self-cleavage was 0.26.

Turning to C11G U31G, the self-cleavage came out at 0.27. For the variant C12U U51A, the self-cleavage was 1.26. Take A56G C59G: the self-cleavage came to 0.21. The result for G55A A75G reads 0.4; that for C62A U67A, 0.32. As to G22U C59U, the self-cleavage worked out at 0.16. In the case of C29G U41A it was 0.33.

Consider C39A U60C, for which the self-cleavage worked out at 0.13. In the case of A28G C62U it was 0.27; in that of A13G A47G, 0.86; in that of A28U C50A, 0.53. The result for U69C U80G reads 0.73; that for G55A U67C, 0.22; that for A47U U72A, 0.35. The result for C50A U51C reads 0.93.

In the case of U51G, the self-cleavage is 0.99. In the case of A57U U60A it was 0.24; in that of G61C A65C, 0.22; in that of G36C U78C, 0.14. In the case of U60C A64U it was 0.31; in that of U60C U69C, 0.37; in that of A45G U49A, 0.42. Turning to U51G U54A, the self-cleavage amounted to 1.28. In the case of U1C A75G it was 0.79; in that of A45C A64U, 0; in that of U25A U26C, 0.28. The result for U66C U78A reads 0.43; that for A13C U80C, 1.14. The result for C40A C50A reads 0.27; that for G9U U67C, 0.24. In the case of U43C C50U, the self-cleavage is 0.24. C23A G73A: the self-cleavage is 0.23.

As for A3G A75G, the self-cleavage came out at 1. The result for A35G U51G reads 1.28.

Turning to G42U U66A, the self-cleavage was 0.26.

On to U60C U76A, for which the self-cleavage came out at 0.58. As for A20U U66G, the self-cleavage came out at 0.26. The result for A5U G7U reads 0.35; that for A5G A65U, 0.19.

In the case of A5G A65G, the self-cleavage is 0.39. As for G36C A56U, the self-cleavage worked out at 0.13. In the case of U25C A56C it was 0.25; in that of C14G A15C, 0.37; in that of G36A U58G, 0.19. The result for A56C A57G reads 0.5; that for C37U A45C, 0.29; that for A20G A35U, 0.34. In the case of A13U G53A it was 1.27; in that of G8C U76C, 0.4; in that of A5G C29U, 0.26. Take A2U U72C: the self-cleavage was determined as 1.11. In the case of G42A U69A it was 0.08. A2G C68A: the self-cleavage was 0.11. C32U U72A: the self-cleavage was 0.11. The result for A45U G55A reads 0.14; that for G19A U26C, 0.31; that for G61A U76C, 0.88.

On to G9C A77C, for which the self-cleavage was found to be 0.18. Consider G42A U60A, for which the self-cleavage was found to be 0.3.

In the case of A15U U51C, the self-cleavage worked out at 0.54.

As for A56U C59U, the self-cleavage was 0.19. The result for G46A U58C reads 0.38; that for U41A U66G, 0.18; that for A13G A45C, 0.34. On to U49C U74A, for which the self-cleavage stood at 0.71.

G16U G24U: the self-cleavage was found to be 0.11.

Regarding U1C U76C, the self-cleavage came to 0.8. As to A2G U67A, the self-cleavage is 0.3.

As for G61A U67A, the self-cleavage stood at 0.43. In the case of U41A G53C it was 0.23; in that of C32A C62G, 0.13; in that of A57G U60C, 0.42.

Take G33C U41A: the self-cleavage worked out at 0.16.

On to C37A U43A, for which the self-cleavage worked out at 0.14.

U54G A65G: the self-cleavage is 0.3.

On to G6A A64G, for which the self-cleavage was determined as 0.27.

Take A56G U80G: the self-cleavage was determined as 0.99.

Regarding A45U A65G, the self-cleavage stood at 0.25. In the case of A13G C29U, the self-cleavage stood at 0.33.

A47C A77G: the self-cleavage stood at 0.34.

As to C40U A47G, the self-cleavage is 0.5. The result for G16C U60A reads 0.29; that for U48A U69C, 0.44.

As to U31A C38U, the self-cleavage was determined as 0.53. C23U C38U: the self-cleavage is 0.13. Turning to A18C U26C, the self-cleavage worked out at 0.44. As for G9U U69A, the self-cleavage was found to be 0.11.

Turning to A56U U58C, the self-cleavage was 0.3. As to G8U U69C, the self-cleavage is 0.09.

Regarding A15U U41G, the self-cleavage is 0.26. As to A15G C32A, the self-cleavage was found to be 0.24.

As to A18U G70U, the self-cleavage came out at 0.21. Consider C23U U76A, for which the self-cleavage was 0.22.

In the case of A2U U76A, the self-cleavage turned out to be 1.14.

Take C17G A28C: the self-cleavage stood at 0.21. In the case of C39U A65G it was 0.32; in that of C39A G70A, 0.11; in that of A21U U41A, 0.26. The result for U26G U80A reads 0.35.

In the case of G8C G36C, the self-cleavage was determined as 0.15. In the case of U1G G53C, the self-cleavage amounted to 0.89. Consider G24U A64G, for which the self-cleavage turned out to be 0.18.

Regarding C12A A45G, the self-cleavage was 1.04. The result for G8U C37U reads 0.17; that for U67A U72G, 0.35.
